{"source": "the Human Domainome abundance scans (Beltran et al. 2025)", "parents": {"B1": {"name": "FERM and PDZ domain-containing protein 4, residues 75 to 154; numbered along this chain, Q14CM0 (parent)", "chain": "APRKVEMRRDPVLGFGFVAGSEKPVVVRSVTPGGPSEGKLIPGDQIVMINDEPVSAAPRERVIDLVRSCKESILLTVIQP"}, "B2": {"name": "Androgen receptor, residues 557 to 632; numbered along this chain, P10275 (parent)", "chain": "QKTCLICGDEASGCHYGALTCGSCKVFFKRAAEGKQKYLCASRNDCTIDKFRRKNCPSCRLRKCYEAGMTLGARKL"}}, "note": "± gives the uncertainty stated by the source.", "data": [{"variants_of": "B1", "experiment": "abundance fitness (aPCA) (normalised: wild type 0, dead -1); higher = more abundant; growth selection in yeast, the domain comes from the species named", "conditions": "Homo sapiens", "values": [{"variant": "V5T", "abundance fitness": "-0.325 ± 0.032"}, {"variant": "V5R", "abundance fitness": "-0.679 ± 0.026"}, {"variant": "V5E", "abundance fitness": "-0.192 ± 0.029"}, {"variant": "V5D", "abundance fitness": "-0.976 ± 0.096"}, {"variant": "V5S", "abundance fitness": "-0.623 ± 0.031"}, {"variant": "V5G", "abundance fitness": "-0.997 ± 0.036"}, {"variant": "V5L", "abundance fitness": "-0.154 ± 0.023"}, {"variant": "V5Q", "abundance fitness": "-0.522 ± 0.034"}, {"variant": "V5A", "abundance fitness": "-0.219 ± 0.026"}, {"variant": "V5N", "abundance fitness": "-0.778 ± 0.069"}, {"variant": "V5Y", "abundance fitness": "-0.107 ± 0.04"}, {"variant": "V5K", "abundance fitness": "-0.749 ± 0.059"}, {"variant": "V5H", "abundance fitness": "-0.349 ± 0.041"}, {"variant": "V5M", "abundance fitness": "-0.192 ± 0.031"}, {"variant": "V5C", "abundance fitness": "-0.556 ± 0.038"}, {"variant": "V5F", "abundance fitness": "-0.085 ± 0.036"}, {"variant": "K4S", "abundance fitness": "-0.084 ± 0.29"}, {"variant": "K4R", "abundance fitness": "0.114 ± 0.17"}, {"variant": "K4N", "abundance fitness": "-0.218 ± 0.28"}, {"variant": "K4L", "abundance fitness": "-0.068 ± 0.31"}, {"variant": "E6G", "abundance fitness": "-0.144 ± 0.02"}, {"variant": "E6K", "abundance fitness": "0.002 ± 0.029"}, {"variant": "E6Q", "abundance fitness": "-0.03 ± 0.029"}, {"variant": "E6F", "abundance fitness": "0.043 ± 0.037"}, {"variant": "E6Y", "abundance fitness": "0.007 ± 0.037"}, {"variant": "E6L", "abundance fitness": "-0.018 ± 0.022"}, {"variant": "E6T", "abundance fitness": "-0.009 ± 0.027"}, {"variant": "E6I", "abundance fitness": "-0.006 ± 0.033"}, {"variant": "E6M", "abundance fitness": "-0.061 ± 0.028"}, {"variant": "E6N", "abundance fitness": "-0.014 ± 0.043"}, {"variant": "E6H", "abundance fitness": "0.039 ± 0.039"}, {"variant": "E6W", "abundance fitness": "-0.047 ± 0.025"}, {"variant": "E6S", "abundance fitness": "-0.016 ± 0.023"}, {"variant": "E6A", "abundance fitness": "-0.086 ± 0.022"}, {"variant": "E6P", "abundance fitness": "-0.184 ± 0.028"}, {"variant": "E6C", "abundance fitness": "-0.065 ± 0.03"}, {"variant": "E6V", "abundance fitness": "-0.091 ± 0.022"}, {"variant": "E6R", "abundance fitness": "-0.029 ± 0.02"}, {"variant": "R9C", "abundance fitness": "-0.19 ± 0.033"}, {"variant": "R9P", "abundance fitness": "-0.086 ± 0.029"}, {"variant": "R9H", "abundance fitness": "-0.227 ± 0.06"}, {"variant": "R9I", "abundance fitness": "-0.142 ± 0.038"}, {"variant": "R9Q", "abundance fitness": "-0.3 ± 0.035"}, {"variant": "R9G", "abundance fitness": "-0.402 ± 0.024"}, {"variant": "R9E", "abundance fitness": "-0.382 ± 0.03"}, {"variant": "R9K", "abundance fitness": "-0.031 ± 0.031"}, {"variant": "R9F", "abundance fitness": "-0.031 ± 0.037"}, {"variant": "R9M", "abundance fitness": "-0.149 ± 0.032"}, {"variant": "R9N", "abundance fitness": "-0.157 ± 0.063"}, {"variant": "R9A", "abundance fitness": "-0.066 ± 0.024"}, {"variant": "R9D", "abundance fitness": "-0.792 ± 0.09"}, {"variant": "R8E", "abundance fitness": "0.034 ± 0.038"}, {"variant": "R8L", "abundance fitness": "-0.011 ± 0.028"}, {"variant": "R8M", "abundance fitness": "-0.014 ± 0.042"}, {"variant": "R8W", "abundance fitness": "-0.043 ± 0.033"}, {"variant": "R8S", "abundance fitness": "-0.024 ± 0.032"}, {"variant": "R8V", "abundance fitness": "-0.038 ± 0.029"}, {"variant": "R8A", "abundance fitness": "-0.009 ± 0.032"}, {"variant": "R8H", "abundance fitness": "-0.058 ± 0.052"}, {"variant": "R8Q", "abundance fitness": "0.018 ± 0.043"}, {"variant": "R8I", "abundance fitness": "0.006 ± 0.046"}, {"variant": "R8F", "abundance fitness": "0.013 ± 0.043"}, {"variant": "R8Y", "abundance fitness": "-0.059 ± 0.055"}, {"variant": "R8P", "abundance fitness": "-0.116 ± 0.048"}, {"variant": "R8D", "abundance fitness": "0.029 ± 0.042"}, {"variant": "R8C", "abundance fitness": "-0.12 ± 0.044"}, {"variant": "R8G", "abundance fitness": "-0.052 ± 0.027"}, {"variant": "R8N", "abundance fitness": "-0.09 ± 0.062"}, {"variant": "R3K", "abundance fitness": "-0.036 ± 0.029"}, {"variant": "R3P", "abundance fitness": "-0.937 ± 0.056"}, {"variant": "R3T", "abundance fitness": "-0.338 ± 0.029"}, {"variant": "R3W", "abundance fitness": "-0.769 ± 0.041"}, {"variant": "R3C", "abundance fitness": "-0.985 ± 0.064"}, {"variant": "R3S", "abundance fitness": "-0.451 ± 0.026"}, {"variant": "R3Y", "abundance fitness": "-0.197 ± 0.038"}, {"variant": "R3V", "abundance fitness": "-0.165 ± 0.022"}, {"variant": "R3D", "abundance fitness": "-0.659 ± 0.045"}, {"variant": "R3Q", "abundance fitness": "-0.243 ± 0.032"}, {"variant": "R3E", "abundance fitness": "-0.517 ± 0.032"}, {"variant": "R3L", "abundance fitness": "-0.238 ± 0.024"}, {"variant": "R3F", "abundance fitness": "-0.194 ± 0.033"}, {"variant": "R3H", "abundance fitness": "-0.176 ± 0.038"}, {"variant": "R3M", "abundance fitness": "-0.188 ± 0.03"}, {"variant": "R3N", "abundance fitness": "-0.299 ± 0.04"}, {"variant": "R3G", "abundance fitness": "-0.666 ± 0.025"}, {"variant": "R3I", "abundance fitness": "-0.099 ± 0.035"}, {"variant": "P2A", "abundance fitness": "-0.074 ± 0.026"}, {"variant": "P2I", "abundance fitness": "0.019 ± 0.048"}, {"variant": "P2Y", "abundance fitness": "-0.004 ± 0.05"}, {"variant": "P2H", "abundance fitness": "0.023 ± 0.032"}, {"variant": "P2E", "abundance fitness": "0.044 ± 0.032"}, {"variant": "P2M", "abundance fitness": "0.023 ± 0.041"}, {"variant": "P2V", "abundance fitness": "-0.049 ± 0.027"}, {"variant": "P2C", "abundance fitness": "-0.066 ± 0.044"}, {"variant": "P2W", "abundance fitness": "-0.119 ± 0.033"}, {"variant": "P2K", "abundance fitness": "-0.051 ± 0.042"}, {"variant": "P2L", "abundance fitness": "-0.015 ± 0.026"}, {"variant": "P2D", "abundance fitness": "-0.083 ± 0.042"}, {"variant": "P2N", "abundance fitness": "-0.003 ± 0.048"}, {"variant": "P2T", "abundance fitness": "0.007 ± 0.029"}, {"variant": "P2F", "abundance fitness": "-0.012 ± 0.052"}, {"variant": "P2R", "abundance fitness": "-0.01 ± 0.023"}, {"variant": "P2G", "abundance fitness": "0 ± 0.027"}, {"variant": "M7C", "abundance fitness": "-0.247 ± 0.032"}, {"variant": "M7F", "abundance fitness": "-0.085 ± 0.036"}, {"variant": "M7A", "abundance fitness": "-0.213 ± 0.024"}, {"variant": "M7S", "abundance fitness": "-0.535 ± 0.027"}, {"variant": "M7Y", "abundance fitness": "-0.835 ± 0.075"}, {"variant": "M7N", "abundance fitness": "-1.07 ± 0.11"}, {"variant": "M7G", "abundance fitness": "-0.877 ± 0.031"}, {"variant": "M7K", "abundance fitness": "-1 ± 0.073"}, {"variant": "M7E", "abundance fitness": "-0.918 ± 0.051"}, {"variant": "M7V", "abundance fitness": "-0.034 ± 0.021"}, {"variant": "M7I", "abundance fitness": "0.018 ± 0.033"}, {"variant": "M7W", "abundance fitness": "-1.02 ± 0.047"}, {"variant": "M7T", "abundance fitness": "-0.36 ± 0.03"}, {"variant": "M7Q", "abundance fitness": "-0.937 ± 0.057"}, {"variant": "M7D", "abundance fitness": "-1.08 ± 0.085"}, {"variant": "M7R", "abundance fitness": "-0.967 ± 0.032"}, {"variant": "M7L", "abundance fitness": "0.04 ± 0.022"}, {"variant": "M7H", "abundance fitness": "-1.01 ± 0.096"}, {"variant": "A1P", "abundance fitness": "-0.734 ± 0.16"}, {"variant": "A1G", "abundance fitness": "-0.157 ± 0.024"}, {"variant": "A1C", "abundance fitness": "0.003 ± 0.064"}, {"variant": "A1Y", "abundance fitness": "-0.14 ± 0.099"}, {"variant": "A1M", "abundance fitness": "-0.227 ± 0.084"}, {"variant": "A1V", "abundance fitness": "-0.207 ± 0.028"}, {"variant": "A1T", "abundance fitness": "-0.278 ± 0.045"}, {"variant": "A1F", "abundance fitness": "-0.199 ± 0.17"}, {"variant": "A1W", "abundance fitness": "-0.569 ± 0.096"}, {"variant": "A1Q", "abundance fitness": "-0.704 ± 0.2"}, {"variant": "A1E", "abundance fitness": "-0.329 ± 0.037"}, {"variant": "A1D", "abundance fitness": "-0.046 ± 0.05"}, {"variant": "A1S", "abundance fitness": "-0.207 ± 0.045"}, {"variant": "A1I", "abundance fitness": "0.122 ± 0.49"}]}, {"variants_of": "B2", "experiment": "abundance fitness (aPCA) (normalised: wild type 0, dead -1); higher = more abundant; growth selection in yeast, the domain comes from the species named", "conditions": "Homo sapiens", "values": [{"variant": "R74A", "abundance fitness": "-0.119 ± 0.068"}, {"variant": "R74T", "abundance fitness": "0.088 ± 0.092"}, {"variant": "R74M", "abundance fitness": "-0.056 ± 0.1"}, {"variant": "R74W", "abundance fitness": "-0.19 ± 0.081"}, {"variant": "R74V", "abundance fitness": "-0.063 ± 0.068"}, {"variant": "R74Q", "abundance fitness": "0.023 ± 0.1"}, {"variant": "R74G", "abundance fitness": "0.05 ± 0.05"}, {"variant": "R74L", "abundance fitness": "-0.18 ± 0.089"}, {"variant": "R74F", "abundance fitness": "-0.165 ± 0.15"}, {"variant": "R74H", "abundance fitness": "-0.036 ± 0.12"}, {"variant": "R74P", "abundance fitness": "0.13 ± 0.1"}, {"variant": "R74K", "abundance fitness": "-0.263 ± 0.27"}, {"variant": "R74S", "abundance fitness": "-0.032 ± 0.059"}, {"variant": "R74I", "abundance fitness": "-0.317 ± 0.13"}, {"variant": "R74C", "abundance fitness": "0.06 ± 0.082"}, {"variant": "R74N", "abundance fitness": "-0.044 ± 0.1"}, {"variant": "R74E", "abundance fitness": "0.066 ± 0.1"}, {"variant": "L76S", "abundance fitness": "-0.084 ± 0.086"}, {"variant": "A73G", "abundance fitness": "-0.06 ± 0.06"}, {"variant": "A73Q", "abundance fitness": "-0.138 ± 0.1"}, {"variant": "A73I", "abundance fitness": "-0.101 ± 0.14"}, {"variant": "A73R", "abundance fitness": "0.008 ± 0.059"}, {"variant": "A73N", "abundance fitness": "-0.047 ± 0.17"}, {"variant": "A73W", "abundance fitness": "-0.203 ± 0.071"}, {"variant": "A73K", "abundance fitness": "-0.2 ± 0.12"}, {"variant": "A73Y", "abundance fitness": "-0.166 ± 0.22"}, {"variant": "A73V", "abundance fitness": "-0.054 ± 0.067"}, {"variant": "A73P", "abundance fitness": "-0.44 ± 0.15"}, {"variant": "A73M", "abundance fitness": "-0.18 ± 0.12"}, {"variant": "A73S", "abundance fitness": "0 ± 0.084"}, {"variant": "A73T", "abundance fitness": "-0.205 ± 0.27"}, {"variant": "A73L", "abundance fitness": "-0.176 ± 0.073"}]}]}
